Test results as given in paper PMC5931981, “Identification of a pyrophosphate-dependent kinase and its donor selectivity determinants” (Nature Communications, 2018).

Assays:
TM0415 = biological target: T1, TM0415 (Thermotoga maritima, UniProt Q9WYP6); test: X-ray crystal structure; format: binding; conditions: untagged
T1 construct: gene TM_0415; synthetic gene in pET-15b, E. coli BL21(DE3)pLysS; N-terminal His-tag for activity and kinetics; untagged for crystallization; monomer
T1 sequence (Q9WYP6 1-286): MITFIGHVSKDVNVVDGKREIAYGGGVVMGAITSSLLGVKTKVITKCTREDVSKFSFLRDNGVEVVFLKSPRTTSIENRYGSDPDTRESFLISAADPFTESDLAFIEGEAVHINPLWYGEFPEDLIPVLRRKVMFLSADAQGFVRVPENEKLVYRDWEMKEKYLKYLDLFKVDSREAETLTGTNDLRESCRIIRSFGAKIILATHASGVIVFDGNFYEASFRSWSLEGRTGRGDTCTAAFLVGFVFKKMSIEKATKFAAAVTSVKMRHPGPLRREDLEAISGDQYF

malachite green Pi assay [1] = substrate: O=P(O)(O)OP(=O)(O)O; test: malachite green Pi assay; format: biochemical, Thermotoga maritima; conditions: myo-inositol as acceptor, 500 µM MgCl2, 50 mM MES-NaOH pH 6.1, 70 °C, His-tagged, upper limit, velocity constant at 15-500 µM
malachite green Pi assay [2] = substrate: O[C@H]1[C@H](O)[C@@H](O)[C@H](O)[C@@H](O)[C@H]1O; test: malachite green Pi assay; format: biochemical, Thermotoga maritima; conditions: PPi as phosphate donor, 500 µM MgCl2, 50 mM MES-NaOH pH 6.1, 70 °C, His-tagged

With O[C@H]1[C@H](O)[C@@H](O)[C@H](O)[C@@H](O)[C@H]1O [myo-inositol] the X-ray crystal structure (TM0415; phosphate-acceptor site, with PCP and Mg2+, also in sulfate complex 5YSQ) was “D11, N78, Q141, and R145 in TM0415 interact with four of the six hydroxyl groups”.

With O=P(O)(O)CP(=O)(O)O [PCP] the X-ray crystal structure (TM0415; phosphate-donor site, chain A, with Mg2+ and myo-inositol) was “Chain A was complexed with PCP, a magnesium ion, and myo-inositol”.

B1: TM0415 (Thermotoga maritima MSB8) (protein)
chain: T1 sequence (Q9WYP6 1-286)
notes: synthetic gene in pET-15b, E. coli BL21(DE3)pLysS; N-terminal His-tag for activity and kinetics; untagged for crystallization; monomer
B1 showed a kcat (malachite green Pi assay [1]) of about 9.5 s⁻¹, a Km (malachite green Pi assay [2]) of 12 ± 2 mM and a kcat (malachite green Pi assay [2]) of 10.8 ± 0.3 s⁻¹.
